We go through 19 sequences from the DeepSol protein solubility set.

A short description of the data set: soluble on expression in E. coli; label from the status in PepcDB or PDB records.
As to “SMKINFLRNKHKIHVQGTDLPDPIATFQQLDQEYKINSRLLQNILDAGFQMPTPIQMQAIPVMLHGRELLASAPTGSGKTLAFSIPILMQLKQPANKGFRALIISPTRELASQIHRELIKISEGTGFRIHMIHKAAVAAKKFGPKSSKKFDILVTTPNRLIYLLKQDPPGIDLASVEWLVVDESDKLFEDGKTGFRDQLASIFLACTSHKVRRAMFSATFAYDVEQWCKLNLDNVISVSIGARNS”, the “soluble on expression in E. coli” value is listed as “soluble”. Regarding “MGSDKIHHHHHHMIYMIIHKFIIHVLDKNSDVPILNDFEGKVNQEVDGFFQKAIKRIAKDEDLRKGVFKDYNDNLIKNCCEQIIYDESTFLKNSKEIASYLFDVMKINAALESCDLAICLYTIKDEKSVAILKLDYKKLYTHSIEFVDDKFNIQMVSNEIGIPETLRQKQGALISLSGINDEFHLRLLDKDAEKEGSESKFVTEFLNAKKIDDDKYKTKVFKNTAENWITNALSNDIKQAEDVRSILNYTLKEKHEVDINDFVDNSIKDDELKDSFKEHMEEKGLDESFSIDKKWVEKKLKKRSIKTDNGFDIKGNLTDFEDPMKYTVKQNQDGTIDIIIKNVTFYEEK”, the “soluble on expression in E. coli” value is “not soluble”. Consider “SCIIFFKFDPRPVSKNAYRLILAANRDEFYSRPSKLADFWGNNNEILSGLDMEEGKEGGTWLGISTRGKLAALTNYLQPQLDWQARGRGELVTHFLTTDVDSLSYLKKVSMEGHLYNGFNLIAANLSTAKGDVICYYGNRGEPDPIVLTPGTYGLSNALLETPWRKLCFGKQLFLEAVERSQALPKDVLIASLLDVLNNKEAQLPDPAIEDQGGEYVQPMLSKYAAVCVRCPGYGTRTNTIILVDADGHVTFTERSMMDKDLSHWETRTYEFTLQS”, for which the “soluble on expression in E. coli” value is “not soluble”. As for “MTTALYLEDAYKTSCETEVIKVEGNKVFVKETVFYPTGGGQECDTGVIVQDGSVFEVEKVKKEQGEIVHYIKDEAQVKLGPVKLEINWERRHNLMRHHSLLHLIGAVVYEKYGALCTGNQIYPDKARIDFNELQELSSVEVEEIVEEVNKLIKQNKEISTRYMSREEAENAVGMIKTAINLLPTTIQEIRIVTIENLDEQACGGTHVKNTSEIGTLVIDKVKSKGKQNRRFEVRAI”, the “soluble on expression in E. coli” value is on record as “not soluble”. As to “SLYENDYVKKTQVWPSGGQMTVKNLSANYIDGGNTVLENISFSLSPGQRVGLLGRTGSGKSTLLSAFLRLLSTQGDIQIDGVSWQTIPLEKWRKAFGVIPQKVFIFSGSIRKNLDPYGKWSDEELLKVTEEVGLKLIIDQFPGQLDFVLLDGGCVLSHGHKQLVCLARSVLSKAKILLLDEPSAHLDPITFQIIRKTLKHAFADCTVILSEARLEAMLECDRFLVIEDNTVRQYDSIQKLVNEKSDFKQAISHSD”, the “soluble on expression in E. coli” value is “soluble”.

Take “MGSDKIHHHHHHMKKKFQLEVPGGADKVLLHTCCAPCSSAIIECLMQHGVTPVIYYCNPNIYPLEEYIIRKDECTRYAQSLGLEIIDADYDHDAWRCRMAGMEQEPERGGRCLRCFKMRLQETARYAHEHGFPVITTTLASSRWKSLEQIEEAGRYATAPYPDVTYWEQNWRKGGLSERRIAIIKEYNFYNQQYCGCEFSMRKEEKGG”: the “soluble on expression in E. coli” value is listed as “not soluble”. “GMISPERLRVYRFFASLTDEQLKDIALISEEKSFPTGSVIFKENSKADNLMLLLEGGVELFYSNGGAGSAANSTVCSVVPGAIFGVSSLIKPYHYTSSARATKPVRVVDINGARLREMSENNQALGQVLMNNVAAAVLARLH”: the “soluble on expression in E. coli” value was “soluble”. “MGSDKIHHHHHHMSETIQPGQTAVVLGAGGFLGSHVADALSNAGYKVRLFDRNPSPFRRSDQEMIIGDLMDISQVSNAVQGAAAVYNFAAIADIDEAHDNPLGTASINVLGNMHALEASRLAGVRRFIFASSVYVYSETGSFYRASKQAAERFTETYHERYGLEYTILRYGSLYGRRSDRRNGIYRMLHEAIQQRAITYRGSGESIREYIHVEDAARMSVQILAPEFANRHLILTGQEKLRIRDVMTMISEMLPWNVDLHYDQAKPGHHYQITPYAFQPRVGRKLVLNEHVDLGQGLLDCIQEIYQQISHGNEEGGTTPSSTDNQA”: the “soluble on expression in E. coli” value is recorded as “not soluble”. On to “MTFTPPEFKILSVNTRNLETIFSTLLGRYKIITDPPVSEAVSSGEIIRNTLETLLARTHKVVICKTDRETARDVFKQLSNELREVLKENNEEKNKQAILFLLGALLHRYFRLIKEYDNFNSYIPYPSFLFSKPPSNVKDCRLFQAIRLALGLPEVMERNYRINDLKILDVTTIVTALETFRDNMQLIVGKDEGKMPRYKSYPHFAADKNFETYLQEIIDEHKRRNPVVLNQFKAINFIQSLVKQIEEEQRQIEEALTHLGKFLPKTCSDFKTISLELMEEQIKAQIESNVLQEKIIDLLYTGHIQENFSTMDCGSFIEAMKNCNSSLARYRALGGYCLLLQNEGVKEQLRFCIHQALGVEINPNELTDKDMLDAIRLLKTYFEANPKVELNFDFFNGKGSMNTFILQTELALAKKVQTVNKAQEDNSETRTTSLFV”, for which the “soluble on expression in E. coli” value is on record as “not soluble”. The value for “MGSDKIHHHHHHMEKEMLTFDITNDFIVGDRITKETLNKYSKLPHKIKAGLFLLCVEGSVQASINLAKYTINKYDFVTLVPSNFIQFHEISDDARFYFAGFSSEFMTNINFIKSTMSFLPVITEHPIMPLEESVAQLYIDGYRLLIRAQSLSPSYSMVNKNLVIAYLTIFMQGTAELYKNHSHWTNGIRTRTNEIYRKFIQLVVEHYTTEHSVSFYAAQLNLSLPHFCTTIKKAIGLTPLEIISSIITMDAKAQLRSTDLTVKEIAFSLGFNNLSFFNKYFRQHTGMTPQEYRRMKIPSST” was “not soluble”. Regarding “MGSDKIHHHHHHMNFIEQISENNQFPIIFVGSGITQRYFENAPTWEKLLKDIWLELFDEESYYAKAFELRERFENNDFDIYTNLASLLEKEVSKAFINGNIQVDNLDLKTAYELNISPFKQLVANRFSNLKIREEKIEEIKQFSQMLSKARIIITTNYDNFIEECLKTINVSVKINVGNKGLFLKSSDYGELYKIHGTVDDASTITITKEDYEKNVTKSALINAKILSNLVESPILFLGYSLTDENIRKLLTDFAENSPFDISESAQKIGVVEYLPDSESIETVVSSLPDLSVYYSCLKTDNFTNIYRLISKINQGFLPSEIAKYENVFRKIIEVKGESKDLKTVLTSYEDLANLTEDEIRSKNIVVAFGDERYIYKFPDFKEYVRSYFLDKETIPQEIVIRFIATQPVASHLPIKKYMFAMSEYISKDSNKYTENIKKRLSKEEELSLDDFTSSIGVPLLHSKTLERQTEIVGILEADVPDNVRYNFIATHIKNFPKEELFLLVEKIIDEGIFETSRRRFLKAFDLLHY”, the “soluble on expression in E. coli” value was “not soluble”. “AHHHHHHGSVRVAIIGQGYVASIFAVGLERIKEGELGYYGIPLANELPIKVEDIKIVASYDVDKTKIGLPLSEIVQRYWKGNVPESLQEVFVRKGIHLGSLRNLPIEATGLEDEMTLKEAIERLVEEWKEKKVDVIINVPTTEAFTPFGKLEELEKAIKDNNKERLTATQAYAYAAAQYAKEVGGAAFVNAIPTLIANDPAFVELAKESNLVIFGDDGATGATPLTADILGHLAQRNRHVLDIVQFNIGGNTDFLALTDKERNKSKEYTKSSVVEDILGYDAPHFIKPTGYLEPLGDKKFIAMHIEYISFNGARDELIIAGRINDSPALAGLLVDLARLGKIAVDKKEFGTVYPVNAFYMKNPGPKEAKNIPRIIAYEKLRQWAGLPPRYL”: the “soluble on expression in E. coli” value is “soluble”. “SNAMNQTLLSDFGTPVERVERAIDALRNGRGVMVLDDESRENEGDMVFAAEAMTLEQMALTIRHGSGIVCLCITDERRQQLDLPMMVTHNSSQFQTAFTVTIEAAEGVTTGVSAADRLTTIRKAIADNAKPADLNRPGHVFPLRGQPGGVLSRRGHTEASIDLATLAGYKPAGVLCELTNDDGSMAHAPEVIAFAKLHDMPVVTIDDLAAYLQSRAKKAS”: the “soluble on expression in E. coli” value is listed as “soluble”. The value for “MGSDKIHHHHHHMGKGTNPTIGIALGSGAAKGWAHIGVLNGLAAMGIKPDKVAGCSVGALVGAAYAHNHLAELEEWVRSFSSWDVLGLMDIRWRKGGLIGGEKVFDVLQSRIGDVNIEDLEYPFAAIATDLYSGQEIWFRHGDLRQAVRASCSMPGILAPVRQGERWLVDGAVVNPVPVSVSRAMGVDIVIAVDLHGFHSGRLQVLPVNMTSHRATKEDTEMPARQETGFMDLFARGREYVSNLTDKFSLGTKSNPGMIAVMSQSMGILEQRHKRARLMGDPPDICIVPEVANIGTMEFHRADEAIAAGEAAVAKVAHLIEAAIWKD” was “not soluble”; that for “PAIDYKTAFHLAPIGLVLSRDRVIEDCNDELAAIFRCARADLIGRSFEVLYPSSDEFERIGERISPVMIAHGSYADDRIMKRAGGELFWCHVTGRALDRTAPLAAGVWTFEDLSATRRVA” was “soluble”.

Regarding “HNGDLYFSNVMLQDMQTDYSCNARFHFTHTIQQKNPFTLKVLTTRGVAERTPSFMYPQGTASSQMVLRGMDLLLECIASGVPTPDIAWYKKGGDLPSDKAKFENFNKALRITNVSEEDSGEYFCLASNKMGSIRHTISVRVKAAPYWLDEPKNLILAPGEDGRLVCRANGNPKPTVQWMVNGEPLQSAPPNPNREVAGDTIIFRDTQISSRAVYQCNTSNEHGYLLANAFVSVLDVPPRMLSPRNQLIRVILYNRTRLDCPFFGSPIPTLRWFKNGQGSNLDGGNYHVYENGSLEIKMIRKEDQGIYTCVATNILGKAENQVRLEVKDPTRIYRMPEDQVARRGTTVQLECRVKHDPSLKLTVSWLKDDEPLYIGNRMKKEDDSLTIFGVAERDQGSYTCVASTELDQDLAKAYLTVLGRPDRPRDLELTDLAERSVRLTWIPGDANNSPITDYVVQFEEDQFQPGVWHDHSKYPGSVNSAVLRLSPYVNYQFRVIAINEVGSSHPSLPSERYRTSGAPPESNPGDVKGEGTRKNNMEITWTPMNATSAFGPNLRYIVKWRRRETREAWNNVTVWGSRYVVGQTPVYVPYEIRVQAENDFGKGPEPESVIGYSGEDYPRAAPTEVKVRVMNSTAISLQWNRVYSDTVQGQLREYRAYYWRESSLLKNLWVSQKRQQASFPGDRLRGVVSRLFPYSNYKLEMVVVNGRGDGPRSETKEFTTPEGVPSAPRRFRVRQPNLETINLEWDHPEHPNGIMIGYTLKYVAFNGTKVGKQIVENFSPNQTKFTVQRTDPVSRYRFTLSARTQVGSGEAVTEESPAPPNEGRCMAAAPGVKGPS”, the “soluble on expression in E. coli” value is reported as “soluble”. In the case of “GMFVWHEYENAAEAAQSLADAVADALQGALDEKGGAVLAVSGGRSPIAFFNALSQKDLDWKNVGITLADERIVPTNHADSNTGLVREYLLKNKAAAAVWIPMVEDGKTETELHPDAVVDYALKHYKQPDVLILGMGNDGHTASIFPKAPQFQTAIDGSAGVALVHTTPVTAPHERISMTLDAIAHTGHVFLAIQGEEKKAVFDQAAQGENREYPISLVLNHQGVNCHVFYAE”, the “soluble on expression in E. coli” value is on record as “soluble”. With “MLTLSFATGTEPNKWFTRFEERTDHGGLRTLSDDDPLSLLVDATADLALVRLPDPRMDNDDTVHVVELYQESMGVALPKEHTLTLLDVVEPSDLDGEIINYITPPSLEVDVAAVRAQLQMVAANVGVVIAPRPLLKVLSGKLVEHREFSDPQRYGQARTRIALVWKKERDGEDIQDFVGIAKGRTVQSSRQSNAKKVSAREKTLAKQKRRKEAGKKPVRKGGRRKR”, the “soluble on expression in E. coli” value was “not soluble”. For “MKSGEKDYSVKEAMIFSQRIAQLSKALWKCVEKDWQQWIKPYDLNINEHHILTIAYHLKGASISEIAKFGVMHVSTAFNFSKKLEERGYLVFSKKEDDKRNTYIEITDKGEELLLRLMEEYDPENNSVFNGALALRNFYGKFPENIELIAILRNIYGQDFIDIFEKSLEDIEENFTESDQKLVKK”, the “soluble on expression in E. coli” value was “not soluble”.
